According to patent US20250042992A1 (University of California, published 2025):

How the values were obtained:
[1] = molecular target: T1, recombinant fusion protein of human DLK1 extracellular domain (ECD) and monomeric immunoglobulin Fc domain … (human, UniProt P80370 24-303); assay: ELISA with human DLK1 ECD-mFc fusion protein
T1 construct: also called human DLK1 ECD-mFc fusion protein; not shown: monomeric immunoglobulin Fc domain (mFc)
T1 sequence: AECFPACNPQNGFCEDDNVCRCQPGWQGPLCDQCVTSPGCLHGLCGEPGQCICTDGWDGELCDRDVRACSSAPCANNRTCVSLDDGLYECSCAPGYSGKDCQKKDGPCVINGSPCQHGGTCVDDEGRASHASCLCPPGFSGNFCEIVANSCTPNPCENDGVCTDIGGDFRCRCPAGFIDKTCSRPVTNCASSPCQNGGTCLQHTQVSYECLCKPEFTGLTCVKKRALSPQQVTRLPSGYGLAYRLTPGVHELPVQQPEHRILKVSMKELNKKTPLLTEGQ

[2] = molecular target: T1, recombinant fusion protein of human …; assay: ELISA on recombinant DLK1 ECD-mFc
[3] = molecular target: T2, human DLK1 long form (isoform 1, DLK1-FL) fused to mGFP, overexpressed on HEK293T cells (human, UniProt P80370 24-383); assay: KinExA on cells, row HEK293 DLK1-mGFP G05 Cells
T2 construct: also called HEK293T DLK1 mGFP G06 (long form); DLK-FL; not shown: mGFP fluorescent protein fused to DLK1
T2 sequence: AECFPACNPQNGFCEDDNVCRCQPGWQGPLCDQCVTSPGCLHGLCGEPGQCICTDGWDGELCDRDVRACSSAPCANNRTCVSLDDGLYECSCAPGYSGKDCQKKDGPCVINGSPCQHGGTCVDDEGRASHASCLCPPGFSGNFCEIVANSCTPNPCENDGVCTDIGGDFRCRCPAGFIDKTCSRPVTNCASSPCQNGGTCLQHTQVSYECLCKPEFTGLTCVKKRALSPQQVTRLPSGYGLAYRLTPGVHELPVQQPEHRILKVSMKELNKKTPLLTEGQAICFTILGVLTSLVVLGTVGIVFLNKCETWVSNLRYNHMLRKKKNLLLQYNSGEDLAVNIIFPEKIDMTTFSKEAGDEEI

[4] = molecular target: T3, monkey DLK1 fused to mGFP, overexpressed on HEK293T cells (monkey (crab-eating macaque), UniProt A0A2K5TMQ6 24-383); assay: KinExA on cells, row HEK293T Monkey DLK1mGFP mass
T3 construct: whole, on cells; also called crab-eating macaque DLK1; not shown: mGFP fluorescent protein fused to DLK1
T3 sequence: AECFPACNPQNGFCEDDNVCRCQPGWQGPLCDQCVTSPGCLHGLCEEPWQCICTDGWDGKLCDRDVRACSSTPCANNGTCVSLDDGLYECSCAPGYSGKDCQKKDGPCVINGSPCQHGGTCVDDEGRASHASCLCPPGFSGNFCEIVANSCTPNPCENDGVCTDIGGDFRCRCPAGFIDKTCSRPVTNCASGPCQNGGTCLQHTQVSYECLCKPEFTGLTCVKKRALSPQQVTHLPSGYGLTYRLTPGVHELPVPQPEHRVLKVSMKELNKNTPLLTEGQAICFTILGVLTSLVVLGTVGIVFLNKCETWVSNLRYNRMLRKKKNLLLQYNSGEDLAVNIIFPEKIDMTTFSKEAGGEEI

[5] = molecular target: T1, recombinant fusion protein of human …; assay: Octet384 binding kinetics using recombinant protein DLK1 ECD-mFc
[6] = molecular target: T1, recombinant fusion protein of human …; assay: Octet384 binding kinetics using recombinant protein DLK1 ECD-mFc, row Ka (1/Ms)
[7] = molecular target: T1, recombinant fusion protein of human …; assay: Octet384 binding kinetics using recombinant protein DLK1 ECD-mFc, row Kdis (1/s)
[8] = molecular target: T4, DLK1 ECD-mFc long form (human DLK1-FL, isoform 1) (human, UniProt P80370 24-303); assay: ELISA, plate coated with long form of DLK1 ECD-mFc (isoform 1), anti-human IgG Fc-HRP, OD450nm
T4 construct: also called long form of the human DLK1 protein (ELISA coat); not shown: mFc (monomeric immunoglobulin Fc domain)
T4 sequence: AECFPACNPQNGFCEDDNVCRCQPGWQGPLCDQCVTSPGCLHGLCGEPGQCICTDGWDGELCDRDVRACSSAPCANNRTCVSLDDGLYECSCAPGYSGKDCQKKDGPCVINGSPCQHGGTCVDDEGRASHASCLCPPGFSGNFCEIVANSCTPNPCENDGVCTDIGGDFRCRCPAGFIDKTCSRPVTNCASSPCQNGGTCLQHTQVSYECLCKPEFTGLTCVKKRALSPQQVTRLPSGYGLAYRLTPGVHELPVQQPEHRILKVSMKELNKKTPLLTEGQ
Protocol: Plates were incubated with DLK1 Abs serially diluted 2-fold starting from 400 ng/ml in 5% BSA/PBS at RT for 1.5 hrs. Mouse anti-human IgG Fc secondary antibody conjugated to HRP (Novus catalog number: NBP1-78623H) at 1:3000 dilution was applied to each well at 50 μl/well and further incubated at RT for 1 hr. The ELISA was developed first with Thermo Scientific Pierce 1-Step™ Ultra TMB-ELISA substrate solution and then with addition of sulfuric acid stop solution. The ELISA plate was read on a plate reader at 450 nm.

[9] = molecular target: T2, human DLK1 long form (isoform 1, …); assay: KinExA on cells, block Cross Reactivity to Three Tox Models - KD by KinExA (nM), row HEK293T Human DLK1mGFP G05
[10] = molecular target: human DLK1 endogenously expressed on COR-L279 small cell lung carcinoma cells (human) (UniProt P80370); assay: KinExA on cells, row CORL-279 cells(adherent)
[11] = molecular target: T2, human DLK1 long form (isoform 1, …); assay: KinExA on HEK293T DLK1mGFP Human Clone G06 cells detached by Versene; Error% 5.90; 95% CI not defined; equilibrium curves 400pM, 50nM

B1: humanized anti-DLK1 antibody 04-0561-F1 (IgG1) (antibody, V domains shown)
VH: QVQLQESGPGLVKPSETLSLTCTVSGFSLSIYSVHWVRQPPGKGLEWIGLIWGGGSTDYNPSLKSRVTISKDTSKNQVSLKLSSVTAADTAVYYCARKEGNYLWFAYWGQGTLVTVSS
VL: DIVMTQSPDSLAVSLGERVTMNCKSSQSLLQSSNQKNYLAWYQQKPGQPPKLLVYFASTRESGVPDRFSGSGSGTDFTLTISSVQAEDVAVYYCQQHYSIPLTFGQGTKLEIKR
- EC50 [1]: ~0.5 nM
- EC50 [2]: 0.684 nM
- Kd [3]: 1.11 nM
- Kd [4]: 2.19 nM
- Kd [5]: 0.0186 nM
- kon [6]: 48200 M⁻¹ s⁻¹
- koff [7]: 0.000898 s⁻¹
- EC50 [8]: 0.87 nM
- Kd [9]: 1.11 nM

B2: humanized anti-DLK1 antibody 04-0547-h2 (IgG1) (antibody, V domains shown)
VH: EVQLVESGGGLVQPGGSLRLSCAASGFSISDYYMAWVRQAPGKGLEWVANINYDGTNTYYADSVKGRFTISRDNSKNTLYLQMNSLRAEDTAVYYCVRSYYYYGMEYWGQGTTVTVSS
VL: DIQMTQSPSSLSASVGDRVTITCRASHDVSTAVAWYQQKPGKAPKLLIYSASYRYTGVPSRFSGSGSGTDFTLTISSLQPEDFATYYCQQHYRIPLTFGQGTKLEIK
notes: human kappa (P01834) and human IgG1 (P01857) constant regions
- fold lower binding affinity (ELISA EC50) than 04-0561-f1 and 04-0562-h10 [1]: ~20 fold
- Kd [10]: 8.2 nM
- EC50 [2]: 10.3 nM
- Kd [3]: 5.34 nM
- Kd [4]: 9.89 nM
- Kd [5]: 0.298 nM
- kon [6]: 15500 M⁻¹ s⁻¹
- koff [7]: 0.00462 s⁻¹
- Kd [9]: 5.34 nM
- Kd [11]: 5.34 nM
